{"source": "patent US20040229289A1", "about": "“Antigen binding peptides (abtides) from peptide libraries” (Cytogen Corporation, priority 1994, published 2004)", "key": {"in vivo": {"assay": "in vivo", "parameters": "species or system SCID mice", "conditions": "male, C.B-17/Icr Tac-SCID, mouse, iv, 2 ug, total radioactivity", "experimental": "(§1) Male SCID mice (C.B-17/Icr Tac—SCID mice) were purchased from Fox Chase (Philadelphia, Pa.) or. Taconic Farms (Germantown, N.Y.), were housed in sterilized cages with filter bonnets, and were given autoclaved laboratory rodent chow (Purina, St. Louis, Mo.), and filtered tap water ad libitum.\n(§2) 1×10^7 cells of the human prostate tumor line LNCaP (Horoszewicz et al., 1987, Anticancer Res. 7:927-936) were injected subcutaneously (s.c.) into the left rear flank of the mice. The cells were growing in exponential phase before harvesting and had been resuspended in 0.2 mL of sterile saline. Tumors were grown in the mice for 2-3 months before abtides were injected into the mice.\n(§3) For biodistribution studies, abtides were modified at their amino termini with the chelator diethylene-triamine-pentaacetic acid anhydride (DTPA-A) (Sigma, St. Louis, Mo.). Approximately 2 mg of each abtide was initially dissolved in an appropriate volume of 0.1% acetic acid and then 1 mL of 0.1 M sodium bicarbonate, pH 8.0, was added. Two mg of DTPA-A was suspended in 100 AL of dimethylsulfoxide (DMSO), and 10 μL of the abtide solution added to this DTPA-A suspension. […]\n(§4) In one experiment, abtide clone 14-DPTA-^111In (see Table 2) was injected intravenously (i.v.) into two groups of mice bearing measurable LNCaP xenografts. […] Thus, the total injected dose of radioactivity was about 120-140×10^6 cpm.\n(§5) The first group of mice was sacrificed 2 hours after injection of the abtide and tissues were dissected for analysis. […] Dissected tissues were weighed and the amount of ^111In in them was determined by gamma counting. The cpm per gram of each tissue was calculated by dividing the cpm of ^111In found in the tissue by the weight in grams of the tissue. […]\n(§6) In another experiment, abtide clone 17-DPTA-^111In (see Table 2) was injected intravenously into four SCID mice bearing measurable LNCaP xenografts. […] Thus, the total injected dose of radioactivity was about 100-110×10^6 cpm. […]"}, "[1]": {"system": "human prostate carcinoma LNCaP xenograft tumors", "assay": "in vivo", "parameters": "species or system SCID mice", "conditions": "mouse, iv", "experimental": "as §1, §2, §3, §4, §5, §6"}}, "note": "Where a SMILES comes first, the peptide text is derived from it. The star is where a group is joined. DTPA = O=C(O)CN(CCN(CC(=O)O)CC(=O)O)CCN(CC(=O)O)CC(=O)*", "data": [{"smiles": "CC[C@H](C)[C@H](NC(=O)CNC(=O)CN(CCN(CCN(CC(=O)O)CC(=O)O)CC(=O)O)CC(=O)O)C(=O)N[C@H](C(=O)N[C@@H](CC(N)=O)C(=O)N[C@@H](C)C(=O)N[C@@H](CC(N)=O)C(=O)N[C@@H](CC(=O)O)C(=O)N1CCC[C@H]1C(=O)N[C@@H](CC(C)C)C(=O)N1CCC[C@H]1C(=O)N[C@@H](Cc1ccccc1)C(=O)N[C@@H](Cc1c[nH]c2ccccc12)C(=O)N[C@@H](Cc1ccccc1)C(=O)N[C@@H](CCSC)C(=O)N[C@@H](CO)C(=O)N1CCC[C@H]1C(=O)N[C@@H](Cc1ccc(O)cc1)C(=O)N[C@H](C(=O)N1CCC[C@H]1C(=O)NCC(=O)N1CCC[C@H]1C(=O)N[C@@H](C)C(=O)N1CCC[C@H]1C(=O)N[C@H](C(=O)N[C@@H](CC(=O)O)C(=O)N[C@H](C(=O)N[C@@H](CC(N)=O)C(=O)N[C@@H](C)C(=O)N[C@@H](CO)C(=O)N[C@@H](CCCNC(=N)N)C(=O)N[C@@H](C)C(=O)N[C@@H](CC(C)C)C(=O)N[C@H](C(=O)N[C@@H](CO)C(=O)N[C@@H](CC(N)=O)C(=O)N[C@@H](CCC(=O)O)C(=O)N[C@@H](CO)C(=O)NCC(N)=O)C(C)C)[C@@H](C)CC)[C@@H](C)CC)[C@@H](C)O)[C@@H](C)CC", "note": "[abtide clone 14-DPTA-^111In, metal not drawn] ({DTPA}-GIINANDPLPFWFMSPYTPGPAPIDINASRALVSNESG-NH2; N-terminus and C-terminus assumed)", "values": [{"measurement": "tissue to tissue ratio at 2 h", "setting": "in vivo", "value": 1.85}, {"measurement": "localization to LNCaP xenograft tumors", "setting": "[1]", "value": "specific localization to the tumor"}]}]}
